Tests used:
Blys [1] = target: T1, Blys (human, UniProt Q9Y275 134-285, limits assumed); assay: cell-based or functional assay
Blys [2] = target: T1, Blys; assay: SPR, Biacore T200, antibody captured by goat anti-human IgG on a CM5 chip, 300 nM BLYS as analyte
Blys-His融合蛋白(含6×His标签) = target: T2, Blys-His融合蛋白(含6×His标签) (human, UniProt Q9Y275 134-285); assay: ELISA, Blys-His coated, 1:4 serial dilutions of antibody, mouse anti-human IgG-HRP
T2 construct: Expressed in CHO-K1 cells and purified on a Ni column; The background says that Blys acts as a homotrimer and that residues 133-285 are the main functional region; also called 重组人BLYS; not shown: 6×His tag

| 抑制Blys刺激的鼠脾细胞增殖 IC50 (Blys [1]) [ng/mL] | Kd (Blys [2]) [nM] | EC50 (Blys-His融合蛋白(含6×His标签)) [nM] | Binder |
| --- | --- | --- | --- |
| 8.25 | 1.37 |  | Belimumab (antibody, V domains shown) VH: QVQLQQSGAEVKKPGSSVRVSCKASGGTFNNNAINWVRQAPGQGLEWMGGIIPMFGTAKYSQNFQGRVAITADESTGTASMELSSLRSEDTAVYYCARSRDLLLFPHHALSPWGRGTMVTVSS VL: SSELTQDPAVSVALGQTVRVTCQGDSLRSYYASWYQQKPGQAPVLVIYGKNNRPSGIPDRFSGSSSGNTASLTITGAQAEDEADYYCSSRDSSGNHWVFGGGTELTVLG |
|  |  | 0.0292 | NMB01 (antibody, V domains shown) VH: EVQLVESGGGLVQPGGSLRLSCAASGFTFSTFGMNWVRQAPGKGLEWVSYISSGSSTIYYADTVKGRFTISRDNAKNSLYLQMNSLRAEDTAVYYCARLGDPLLRPKGNAMDYWGQGTLVTVSS VL: DIQMTQSPSSLSASVGDRVTITCLASQTIGTWLAWYQQKPGKAPKLLIYAATRKADGVPSRFSGSGSGTDFTLTISSLQPEDFATYYCQQLYSSPWTFGGGTKVEIK |
